From the supplement of paper PMC10126150
± gives the standard deviation of the averaged measurements.

tested on: ATP; experiment: switch fluorescence ratio, 500 uM ATP over buffer (Cy3 cluster intensity, sum of 5 cycles each) (fold (ratio)); higher = stronger signal-on switching upon ATP binding; sequences stand for … in TCGTCGGCAGCGTCAGATGTGTATAAGAGACAGTTTTTTTTTTTTTTTTTTTTTTTTT…TC; conditions: aptamer strand: ATP DNA aptamer (quencher-CACCTGGGGGAGTATTGCGGAGGAAGG + anchor), 100 nM annealed; ATP concentration: 500 uM
Method in brief: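 Switching-strand clusters labelled with Cy3 on a modified Illumina MiSeq flow-cell were annealed to 100 nM quencher-labelled ATP aptamer, imaged in selection buffer, and re-imaged after 15 min with 500 uM ATP at 22 °C. This was done over five cycles with NaOH stripping and re-annealing in between. The fluorescence ratio is summed target-cycle over summed buffer-cycle Cy3 intensity per cluster, averaged per switch-domain sequence, excluding clusters outside 100-1000 RFU.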
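Note: ATP exposure 15 min at 22 °C before imaging.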

| Sequence | switch fluorescence ratio |
| --- | --- |
| GACGGCTGGT | 1.01 ± 0.021 |
| GACGGGATTT | 1.03 ± 0.03 |
| GACGGTAGGG | 0.969 ± 0.051 |
| GACGGTTAAA | 1.12 ± 0.11 |
| GACGGTTATC | 1.11 ± 0.059 |
| GACGGTTATT | 1.002 ± 0.0036 |
| GACGGTTCGT | 1.01 ± 0.022 |
| GACGTATCAA | 1.04 ± 0.025 |
| GACGTATCGT | 0.989 ± 0.032 |
| GACGTATTGC | 1.27 ± 0.061 |
| GACGTCAGCG | 1.05 ± 0.059 |
| GACGTTATGT | 1 ± 0.019 |
| GACGTTGTGG | 1.03 ± 0.014 |
| GACGTTTATG | 0.949 ± 0.099 |
| GACTAAAGTG | 1.01 ± 0.044 |
| GACTAAATGA | 1.01 ± 0.016 |
| GACTAATAGG | 0.992 ± 0.012 |
| GACTACCCCT | 1.234 ± 0.011 |
| GACTACTGCA | 1.13 ± 0.046 |
| GACTAGGTCG | 1.16 ± 0.22 |
| GACTAGTGAC | 1.01 ± 0.021 |
| GACTATTAGA | 0.9918 ± 0.0057 |
| GACTATTGTT | 1 ± 0.015 |
| GACTGAGAAG | 0.945 ± 0.011 |
| GACTGAGAGA | 1.024 ± 0.0035 |

| Sequence | switch fluorescence ratio |
| --- | --- |
| GACTGAGGTA | 0.99 ± 0.031 |
| GACTGCAGGT | 1.01 ± 0.033 |
| GACTGCGGGG | 0.987 ± 0.038 |
| GACTGCTACT | 1.51 ± 0.028 |
| GACTGGGCGA | 1.02 ± 0.029 |
| GACTGGGGAT | 0.995 ± 0.025 |
| GACTGGTATT | 0.991 ± 0.019 |
| GACTGGTTGG | 1.02 ± 0.029 |
| GACTGGTTTT | 1.01 ± 0.033 |
| GACTGTAAAG | 0.967 ± 0.089 |
| GACTGTTCCG | 0.958 ± 0.0055 |
| GACTTAAGGC | 1.005 ± 0.0011 |
| GACTTAGTGC | 1.05 ± 0.012 |
| GACTTAGTGG | 1.03 ± 0.077 |
| GACTTAGTTG | 0.987 ± 0.0068 |
| GACTTCGGGA | 1.13 ± 0.052 |
| GACTTGGGCG | 0.957 ± 0.084 |
| GACTTGTAGG | 0.9844 ± 0.0049 |
| GACTTTGGGC | 1.01 ± 0.038 |
| GACTTTTCGA | 1 ± 0.04 |
| GAGAAAATAT | 1 ± 0.038 |
| GAGAAAATCT | 1.01 ± 0.033 |
| GAGAAAGTTC | 1.06 ± 0.038 |
| GAGAAATTAT | 0.9772 ± 0.0067 |
| GAGAAGAGGG | 1.04 ± 0.042 |

| Sequence | switch fluorescence ratio |
| --- | --- |
| GAGAATAATA | 0.988 ± 0.032 |
| GAGAATCGTC | 1.05 ± 0.064 |
| GAGACTAGAT | 1.01 ± 0.017 |
| GAGAGAATAG | 1.03 ± 0.034 |
| GAGAGAATTT | 1 ± 0.02 |
| GAGAGAGGCT | 0.9988 ± 0.0071 |
| GAGAGAGGGC | 0.966 ± 0.073 |
| GAGAGAGGGG | 0.984 ± 0.026 |
| GAGAGAGTGG | 0.976 ± 0.032 |
| GAGAGATTGT | 1.005 ± 0.0086 |
| GAGAGCAAAT | 1.09 ± 0.048 |
| GAGAGCCACC | 0.971 ± 0.061 |
| GAGAGCCGTT | 1 ± 0.017 |
| GAGAGCTGCG | 1 ± 0.039 |
| GAGAGGATAG | 0.98157 ± 0.0003 |
| GAGAGGGATG | 1.01 ± 0.043 |
| GAGAGGGTGT | 1.05 ± 0.081 |
| GAGAGGTGGG | 1.01 ± 0.024 |
| GAGAGGTGTT | 1.06 ± 0.039 |
| GAGAGTACTT | 0.9945 ± 0.0093 |
| GAGAGTCATC | 1.035 ± 0.0087 |
| GAGATAAGGG | 0.961 ± 0.061 |
| GAGATAGCTT | 0.955 ± 0.043 |
| GAGATAGGGA | 1.01 ± 0.029 |
| GAGATATTGG | 0.99 ± 0.013 |

| Sequence | switch fluorescence ratio |
| --- | --- |
| GAGATCGCC | 0.982 ± 0.016 |
| GAGATCGGTG | 0.96 ± 0.023 |
| GAGATCTTTG | 0.967 ± 0.015 |
| GAGATGGTAG | 0.976 ± 0.0069 |
| GAGATGTAGG | 1 ± 0.014 |
| GAGATTGTGT | 0.9936 ± 0.0048 |
| GAGCAAAGGT | 1.04 ± 0.031 |
| GAGCAACTGA | 1.022 ± 0.0018 |
| GAGCACGGGT | 1.04 ± 0.053 |
| GAGCACGTTT | 0.9963 ± 0.0072 |
| GAGCAGATTG | 1.02 ± 0.036 |
| GAGCAGCTCG | 0.9995 ± 0.0059 |
| GAGCATATTG | 1.03 ± 0.03 |
| GAGCATGAAA | 0.974 ± 0.04 |
| GAGCATTTCC | 1.1 ± 0.043 |
| GAGCATTTTT | 0.969 ± 0.029 |
| GAGCCGTATT | 1.02 ± 0.093 |
| GAGCGCTAGG | 0.9952 ± 0.0043 |
| GAGCGGATTT | 1.03 ± 0.019 |
| GAGCTAGGGG | 1.03 ± 0.041 |
| GAGCTAGTCA | 0.975 ± 0.037 |
| GAGCTGCAGT | 0.947 ± 0.047 |
| GAGCTTTCCG | 1.19 ± 0.26 |
| GAGGAAAGCG | 1.04 ± 0.089 |
| GAGGAAGATT | 1.02 ± 0.021 |
